Assay in all cases: Selectivity ELISA of humanized antibodies for human Eph receptor
Format in all cases: binding
Holding throughout (conditions): coated protein 1 nM
Background: An ELISA detects its analyte on a solid surface through an enzyme-linked reagent.

One experiment has as its target SEAP-His (Homo sapiens, UniProt P05187). The essentials:
(§1)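 His-tagged SEAP fusions of each human Eph receptor extracellular region, from Expi293F supernatants, were captured at 1 nM on anti-His-coated wells. Humanized antibody was bound 1 h at room temperature, then detected with HRP […] IgG. TMB development was acid-stopped and read at 450 nm.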

The target of a further experiment is T1, human EphA7 (Homo sapiens, UniProt Q15375).
T1 construct: a protein of the extracellular region of each human Eph receptor fused with the SEAP protein and the His tag; made in house; host or cells: Expi293F cells (culture supernatant)
T1 sequence (Q15375 28-555 limits assumed): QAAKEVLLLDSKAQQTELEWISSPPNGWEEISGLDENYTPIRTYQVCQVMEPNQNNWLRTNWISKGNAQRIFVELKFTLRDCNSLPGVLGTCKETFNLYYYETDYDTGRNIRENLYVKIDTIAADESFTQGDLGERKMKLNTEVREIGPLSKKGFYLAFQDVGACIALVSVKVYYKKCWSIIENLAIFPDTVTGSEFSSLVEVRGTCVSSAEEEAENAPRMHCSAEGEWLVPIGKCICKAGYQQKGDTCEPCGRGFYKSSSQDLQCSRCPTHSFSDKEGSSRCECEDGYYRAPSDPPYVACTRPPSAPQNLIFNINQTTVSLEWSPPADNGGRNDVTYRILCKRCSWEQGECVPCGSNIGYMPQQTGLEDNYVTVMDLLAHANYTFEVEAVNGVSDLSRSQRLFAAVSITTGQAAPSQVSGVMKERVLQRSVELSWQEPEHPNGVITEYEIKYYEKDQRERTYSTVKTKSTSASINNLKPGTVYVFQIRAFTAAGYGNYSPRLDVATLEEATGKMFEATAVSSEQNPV
In short, it runs like this:
as §1

A further experiment concerns the target T2, human EphA8 (Homo sapiens, UniProt P29322).
T2 construct: a protein of the extracellular region of each human Eph receptor fused with the SEAP protein and the His tag; made in house; host or cells: Expi293F cells (culture supernatant)
T2 sequence (P29322 28-542 limits assumed): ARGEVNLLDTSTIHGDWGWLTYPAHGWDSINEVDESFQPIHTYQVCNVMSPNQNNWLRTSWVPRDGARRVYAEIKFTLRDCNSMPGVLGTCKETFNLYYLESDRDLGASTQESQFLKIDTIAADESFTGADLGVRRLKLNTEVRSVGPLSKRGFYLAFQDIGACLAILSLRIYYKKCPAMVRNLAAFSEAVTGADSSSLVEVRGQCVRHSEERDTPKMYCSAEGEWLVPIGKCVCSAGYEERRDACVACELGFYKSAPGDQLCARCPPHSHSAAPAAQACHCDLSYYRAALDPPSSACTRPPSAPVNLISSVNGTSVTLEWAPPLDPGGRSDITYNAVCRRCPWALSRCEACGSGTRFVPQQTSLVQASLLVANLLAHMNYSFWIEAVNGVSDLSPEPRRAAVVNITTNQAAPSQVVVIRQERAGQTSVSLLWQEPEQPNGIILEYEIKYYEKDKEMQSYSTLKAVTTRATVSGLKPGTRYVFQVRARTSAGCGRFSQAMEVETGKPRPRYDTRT
In short, it runs like this: as §1

The target in the next experiment is T3, human EphB4 (Homo sapiens, UniProt P54760).
T3 construct: a protein of the extracellular region of each human Eph receptor fused with the SEAP protein and the His tag; made in house; host or cells: Expi293F cells
T3 sequence (P54760 16-539 limits assumed): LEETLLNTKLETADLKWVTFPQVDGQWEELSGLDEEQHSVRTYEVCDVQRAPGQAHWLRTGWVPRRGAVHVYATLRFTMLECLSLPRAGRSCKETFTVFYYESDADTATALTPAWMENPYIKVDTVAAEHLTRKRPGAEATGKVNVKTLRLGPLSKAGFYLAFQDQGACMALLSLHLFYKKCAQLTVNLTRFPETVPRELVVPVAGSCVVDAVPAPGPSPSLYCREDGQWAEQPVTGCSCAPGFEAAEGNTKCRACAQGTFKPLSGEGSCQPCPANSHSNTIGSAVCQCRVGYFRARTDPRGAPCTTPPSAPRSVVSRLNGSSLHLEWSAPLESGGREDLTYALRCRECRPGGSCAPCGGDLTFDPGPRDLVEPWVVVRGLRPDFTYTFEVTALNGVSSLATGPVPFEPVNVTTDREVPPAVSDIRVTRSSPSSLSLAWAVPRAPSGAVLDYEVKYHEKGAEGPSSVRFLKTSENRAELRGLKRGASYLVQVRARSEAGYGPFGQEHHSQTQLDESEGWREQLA
In short, it runs like this: as §1

Sequence of SEAP-His (P05187 23-511 limits assumed): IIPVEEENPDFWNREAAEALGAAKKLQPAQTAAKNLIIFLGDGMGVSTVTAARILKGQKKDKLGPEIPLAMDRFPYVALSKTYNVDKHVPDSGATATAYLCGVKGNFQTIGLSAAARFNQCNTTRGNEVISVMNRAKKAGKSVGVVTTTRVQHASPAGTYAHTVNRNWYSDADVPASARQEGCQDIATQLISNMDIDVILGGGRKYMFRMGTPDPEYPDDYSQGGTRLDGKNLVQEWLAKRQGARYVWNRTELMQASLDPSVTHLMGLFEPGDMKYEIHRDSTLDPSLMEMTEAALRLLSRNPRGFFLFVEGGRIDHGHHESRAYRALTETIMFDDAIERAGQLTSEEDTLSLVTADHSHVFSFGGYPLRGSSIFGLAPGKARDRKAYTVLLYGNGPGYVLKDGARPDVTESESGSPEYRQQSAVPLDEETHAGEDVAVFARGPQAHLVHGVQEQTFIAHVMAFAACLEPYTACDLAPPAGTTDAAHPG

B1: 132 (antibody, V domains shown)
VH: QIQLVQSGSELKKPGASVKVSCKASGYTFTDYSMHWVRQAPGQGLKWMGWINTETGEPTYAQGFTGRFVFSLDTSVSTAYLQISSLKAEDTAVYYCARIPLYYYGSRYWYFDVWGQGTTVTVSS
VL: EIVMTQSPATLSVSPGERATLSCRASENIYRNLAWYQQKPGQSPRLLIYAATNLADGIPARFSGSGSGTEYTLTISSLQSEDFAVYYCQHFWGTPWTFGQGTKVEIK
modifications: synthetic humanized antibody heavy chain variable region sequence; synthetic humanized antibody light chain variable region sequence
In the case of B1, in the experiment with SEAP-His, the “SEAP-His: absorbance at 450 nm, percentage with respect to hEphA4-SEAP-His as 100%” value is reported as 4.9%. Moreover, the “hEphA7-SEAP-: absorbance at 450 nm, percentage with respect to hEphA4-SEAP-His as 100%” value in the experiment with human EphA7 turned out to be 4.5%. Also, the “hEphA8-SEAP-: absorbance at 450 nm, percentage with respect to hEphA4-SEAP-His as 100%” value with human EphA8 is 4.7%. For the same molecule, the “hEphB4-SEAP-: absorbance at 450 nm, percentage with respect to hEphA4-SEAP-His as 100%” value in the experiment with human EphB4 came to 4.8%.

B2: 75 (antibody)
VH: QVQLVQSGSELKKPGASVKVSCKASGYTFTDYSMHWVRQAPGQGLEWMGWINTETGEPTYAQGFTGRFVFSLDTSVSTAYLQISSLKAEDTAVYYCARIPLYYYGSRYWYFDVWGQGTTVTVSS
VL: DIQMTQSPSSLSASVGDRVTITCRASENIYRNLAWYQQKPGKAPKLLVYAATNLADGVPSRFSGSGSGTDYTLTISSLQPEDFATYYCQHFWGTPWTFGQGTKVEIK
chain: ASTKGPSVFPLAPSSKSTSGGTAALGCLVKDYFPEPVTVSWNSGALTSGVHTFPAVLQSSGLYSLSSVVTVPSSSLGTQTYICNVNHKPSNTKVDKRVEPKSCDKTHTCPPCPAPPAAAPSVFLFPPKPKDTLMISRTPEVTCVVVDVSHEDPEVQFNWYVDGVEVHNAKTKPREEQFNSTFRVVSVLTVVHQDWLNGKEYKCKVSNKGLPAPIEKTISKTKGQPREPQVYTLPPSREEMTKNQVSLTCLVKGFYPSDIAVEWESNGQPENNYKTTPPMLDSDGSFFLYSKLTVDKSRWQQGNVFSCSVMHEALHNHYTQKSLSLSPG
modifications: synthetic humanized antibody heavy chain variable region sequence; synthetic humanized antibody light chain variable region sequence; synthetic antibody constant region sequence
Regarding B2, in the experiment with SEAP-His, the “SEAP-His: absorbance at 450 nm, percentage with respect to hEphA4-SEAP-His as 100%” value came out at 4.4%. The “hEphA7-SEAP-: absorbance at 450 nm, percentage with respect to hEphA4-SEAP-His as 100%” value with human EphA7 is reported as 4.7%. Moreover, in the experiment with human EphA8, the “hEphA8-SEAP-: absorbance at 450 nm, percentage with respect to hEphA4-SEAP-His as 100%” value turned out to be 4.8%. Moreover, the “hEphB4-SEAP-: absorbance at 450 nm, percentage with respect to hEphA4-SEAP-His as 100%” value with human EphB4 was determined as 4.6%.

B3: 78 (antibody, V domains shown)
VH: QVQLVQSGSELKKPGASVKVSCKASGYTFTDYSMHWVRQAPGQGLKWMGWINTETGEPTYADDFKGRFVFSLDTSVSTAYLQISSLKAEDTAVYYCARIPLYYYGSRYWYFDVWGQGTTVTVSS
VL: DIQMTQSPSSLSASVGDRVTITCRASENIYRNLAWYQQKPGKAPKLLVYAATNLADGVPSRFSGSGSGTDYTLTISSLQPEDFATYYCQHFWGTPWTFGQGTKVEIK
modifications: synthetic humanized antibody heavy chain variable region sequence; synthetic humanized antibody light chain variable region sequence
B3: in the experiment with SEAP-His, the “SEAP-His: absorbance at 450 nm, percentage with respect to hEphA4-SEAP-His as 100%” value is given as 5.3%. Also, the “hEphA7-SEAP-: absorbance at 450 nm, percentage with respect to hEphA4-SEAP-His as 100%” value in the experiment with human EphA7 came to 5.0%. Moreover, in the experiment with human EphA8, the “hEphA8-SEAP-: absorbance at 450 nm, percentage with respect to hEphA4-SEAP-His as 100%” value is on record as 5.4%. Further, in the experiment with human EphB4, the “hEphB4-SEAP-: absorbance at 450 nm, percentage with respect to hEphA4-SEAP-His as 100%” value came out at 5.1%.

B4: 77 (antibody, V domains shown)
VH: QVQLVQSGSELKKPGASVKVSCKASGYTFTDYSMHWVRQAPGQGLEWMGWINTETGEPTYADDFKGRFVFSLDTSVSTAYLQISSLKAEDTAVYYCARIPLYYYGSRYWYFDVWGQGTTVTVSS
VL: DIQMTQSPSSLSASVGDRVTITCRASENIYRNLAWYQQKPGKAPKLLVYAATNLADGVPSRFSGSGSGTDYTLTISSLQPEDFATYYCQHFWGTPWTFGQGTKVEIK
modifications: synthetic humanized antibody heavy chain variable region sequence; synthetic humanized antibody light chain variable region sequence
With B4, the “SEAP-His: absorbance at 450 nm, percentage with respect to hEphA4-SEAP-His as 100%” value with SEAP-His worked out at 4.7%. Besides, the “hEphA7-SEAP-: absorbance at 450 nm, percentage with respect to hEphA4-SEAP-His as 100%” value with human EphA7 is given as 4.3%. Also, in the experiment with human EphA8, the “hEphA8-SEAP-: absorbance at 450 nm, percentage with respect to hEphA4-SEAP-His as 100%” value was 4.8%. The “hEphB4-SEAP-: absorbance at 450 nm, percentage with respect to hEphA4-SEAP-His as 100%” value in the experiment with human EphB4 was found to be 4.5%.

B5: 67 (antibody, V domains shown)
VH: QIQLVQSGSELKKPGASVKVSCKASGYTFTDYSMHWVRQAPGQGLKWMGWINTETGEPTYAQGFTGRFVFSLDTSVSTAYLQISSLKAEDTAVYYCARIPLYYYGSRYWYFDVWGQGTTVTVSS
VL: DIQMTQSPSSLSASVGDRVTITCRASENIYRNLAWYQQKPGKAPKLLVYAATNLADGVPSRFSGSGSGTDYTLTISSLQPEDFATYYCQHFWGTPWTFGQGTKVEIK
modifications: synthetic humanized antibody heavy chain variable region sequence; synthetic humanized antibody light chain variable region sequence
Consider B5, for which the “SEAP-His: absorbance at 450 nm, percentage with respect to hEphA4-SEAP-His as 100%” value with SEAP-His came out at 5.0%. For the same molecule, in the experiment with human EphA7, the “hEphA7-SEAP-: absorbance at 450 nm, percentage with respect to hEphA4-SEAP-His as 100%” value amounted to 4.7%. In addition, the “hEphA8-SEAP-: absorbance at 450 nm, percentage with respect to hEphA4-SEAP-His as 100%” value with human EphA8 is on record as 4.7%. The “hEphB4-SEAP-: absorbance at 450 nm, percentage with respect to hEphA4-SEAP-His as 100%” value with human EphB4 is recorded as 4.9%.

B6: 76 (antibody, V domains shown)
VH: QVQLVQSGSELKKPGASVKVSCKASGYTFTDYSMHWVRQAPGQGLKWMGWINTETGEPTYAQGFTGRFVFSLDTSVSTAYLQISSLKAEDTAVYYCARIPLYYYGSRYWYFDVWGQGTTVTVSS
VL: DIQMTQSPSSLSASVGDRVTITCRASENIYRNLAWYQQKPGKAPKLLVYAATNLADGVPSRFSGSGSGTDYTLTISSLQPEDFATYYCQHFWGTPWTFGQGTKVEIK
modifications: synthetic humanized antibody heavy chain variable region sequence; synthetic humanized antibody light chain variable region sequence
Take B6: the “SEAP-His: absorbance at 450 nm, percentage with respect to hEphA4-SEAP-His as 100%” value with SEAP-His is on record as 5.5%. Further, in the experiment with human EphA7, the “hEphA7-SEAP-: absorbance at 450 nm, percentage with respect to hEphA4-SEAP-His as 100%” value is reported as 4.8%. The “hEphA8-SEAP-: absorbance at 450 nm, percentage with respect to hEphA4-SEAP-His as 100%” value in the experiment with human EphA8 stood at 5.5%. In addition, in the experiment with human EphB4, the “hEphB4-SEAP-: absorbance at 450 nm, percentage with respect to hEphA4-SEAP-His as 100%” value was determined as 5.2%.

B7: 135 (antibody, V domains shown)
VH: QVQLVQSGSELKKPGASVKVSCKASGYTFTDYSMHWVRQAPGQGLEWMGWINTETGEPTYADDFKGRFVFSLDTSVSTAYLQISSLKAEDTAVYYCARIPLYYYGSRYWYFDVWGQGTTVTVSS
VL: EIVMTQSPATLSVSPGERATLSCRASENIYRNLAWYQQKPGQSPRLLIYAATNLADGIPARFSGSGSGTEYTLTISSLQSEDFAVYYCQHFWGTPWTFGQGTKVEIK
modifications: synthetic humanized antibody heavy chain variable region sequence; synthetic humanized antibody light chain variable region sequence
On to B7, for which the “SEAP-His: absorbance at 450 nm, percentage with respect to hEphA4-SEAP-His as 100%” value with SEAP-His came to 5.3%. Moreover, the “hEphA7-SEAP-: absorbance at 450 nm, percentage with respect to hEphA4-SEAP-His as 100%” value with human EphA7 is reported as 5.2%. In addition, the “hEphA8-SEAP-: absorbance at 450 nm, percentage with respect to hEphA4-SEAP-His as 100%” value with human EphA8 came to 5.0%. In addition, the “hEphB4-SEAP-: absorbance at 450 nm, percentage with respect to hEphA4-SEAP-His as 100%” value with human EphB4 was 5.1%.

The values are drawn from patent US10428140B2, “Anti-EphA4 antibody” (EISAI R&D MANAGEMENT CO., LTD., priority 2015, dated 2019).
